Experimental findings from patent publication US20250276075A1, “METHODS OF TREATING AXL-EXPRESSING CANCERS WITH ANTI-AXL ANTIBODIES, ANTIBODY FRAGMENTS AND THEIR IMMUNOCONJUGATES” (BIOATLA, INC., priority 2020, published 2025) are described below.

Entries after “also recorded” stand apart in the source; their conditions may differ.

The target of series [1] is T1, human Axl (Homo sapiens, UniProt P30530).
T1 sequence (P30530 26-894): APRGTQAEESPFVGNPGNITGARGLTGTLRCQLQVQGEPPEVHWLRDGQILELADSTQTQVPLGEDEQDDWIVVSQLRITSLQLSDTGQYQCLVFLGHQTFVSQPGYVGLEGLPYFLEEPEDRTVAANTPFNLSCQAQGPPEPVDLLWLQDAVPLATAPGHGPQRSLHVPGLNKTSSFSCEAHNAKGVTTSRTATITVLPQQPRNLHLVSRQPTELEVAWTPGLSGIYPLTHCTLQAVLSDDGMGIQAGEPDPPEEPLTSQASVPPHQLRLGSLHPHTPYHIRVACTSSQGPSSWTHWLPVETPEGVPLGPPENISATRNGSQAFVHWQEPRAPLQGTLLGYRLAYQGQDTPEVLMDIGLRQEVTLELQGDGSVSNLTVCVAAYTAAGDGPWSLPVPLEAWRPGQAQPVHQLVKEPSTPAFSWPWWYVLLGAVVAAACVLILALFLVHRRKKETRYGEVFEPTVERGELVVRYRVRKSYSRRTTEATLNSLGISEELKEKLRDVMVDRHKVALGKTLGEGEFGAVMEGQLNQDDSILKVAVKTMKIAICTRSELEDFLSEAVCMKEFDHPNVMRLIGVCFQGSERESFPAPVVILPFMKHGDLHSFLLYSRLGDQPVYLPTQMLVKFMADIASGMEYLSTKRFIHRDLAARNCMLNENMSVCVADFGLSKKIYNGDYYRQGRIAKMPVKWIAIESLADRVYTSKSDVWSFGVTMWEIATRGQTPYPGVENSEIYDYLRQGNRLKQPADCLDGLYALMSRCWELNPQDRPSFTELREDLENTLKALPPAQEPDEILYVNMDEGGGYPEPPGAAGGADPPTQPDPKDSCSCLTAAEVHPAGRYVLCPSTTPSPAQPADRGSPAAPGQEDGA
The series is described as follows: BA3011 binding to human Axl in TME and normal tissue conditions.

For series [2], the target named is T2, rat Axl (Rattus norvegicus, UniProt A0A0G2K2H0).
T2 sequence (A0A0G2K2H0 21-879): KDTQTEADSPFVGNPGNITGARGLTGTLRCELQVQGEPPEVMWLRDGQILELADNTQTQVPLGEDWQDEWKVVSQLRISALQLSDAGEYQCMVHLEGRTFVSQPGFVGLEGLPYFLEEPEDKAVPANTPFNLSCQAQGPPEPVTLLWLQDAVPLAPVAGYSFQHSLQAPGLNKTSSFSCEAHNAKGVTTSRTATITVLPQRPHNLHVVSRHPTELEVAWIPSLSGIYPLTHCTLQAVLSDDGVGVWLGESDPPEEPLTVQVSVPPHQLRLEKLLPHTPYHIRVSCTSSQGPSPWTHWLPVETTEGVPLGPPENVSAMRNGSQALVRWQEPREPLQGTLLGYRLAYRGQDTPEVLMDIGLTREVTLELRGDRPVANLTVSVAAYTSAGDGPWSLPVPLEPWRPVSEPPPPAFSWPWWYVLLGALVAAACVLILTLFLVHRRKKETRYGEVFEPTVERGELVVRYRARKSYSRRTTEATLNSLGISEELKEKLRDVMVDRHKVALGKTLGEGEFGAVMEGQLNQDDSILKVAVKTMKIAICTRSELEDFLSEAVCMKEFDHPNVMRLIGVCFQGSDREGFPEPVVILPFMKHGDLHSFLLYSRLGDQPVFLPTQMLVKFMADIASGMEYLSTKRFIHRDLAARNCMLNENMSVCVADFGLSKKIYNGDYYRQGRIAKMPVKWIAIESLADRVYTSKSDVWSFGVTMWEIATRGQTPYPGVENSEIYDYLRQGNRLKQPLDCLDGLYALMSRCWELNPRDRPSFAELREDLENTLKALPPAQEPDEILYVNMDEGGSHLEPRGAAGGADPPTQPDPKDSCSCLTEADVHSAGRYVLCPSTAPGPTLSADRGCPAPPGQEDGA
The series is described as follows: BA3011 binding to rat Axl.

In series [3] the test system is Axl expressing human cancer cell lines. Briefly: BA3011 in vitro functional assays of cellular toxicity. The class given is cell-based.
Series [4] can be described thus: BA3011 plasma exposure in monkey toxicology study. It counts as in vivo, cynomolgus monkey. As to the method: Based on the results at the 5 and 10 mg/kg/dose, the no-observed-adverse-effect-level (NOAEL) of BA3011 was considered to be 1 mg/kg/dose for both males and females. […] The highest non-severely toxic dose (HNSTD) was 5 mg/kg/dose, with C0 on Day 22 at 111 μg/mL and AUC0-inf at 2370 μg·h/mL.

B1: Mecbotamab vedotin (conjugate, chains of the INN, looked up)
VH: EVQLVQSGAEVKKPGATVKISCKVSGYSFWGATMNWIRQPPGKGLEWIGLIKPSNGGTSYNQKFKGRVTISADKSISTAYLQWSSLKASDTAMYYCAHGHYESYEAMDYWGQGTLVTVSS
VL: DIQMTQSPSSLSASVGDRVTITCKASQDVVSAVAWYQQKPGQAPRLLIYWQDTRHTGVPSRFSGSGSGTEFTLTISSLQPDDFATYYCQEHFSPPLTFGQGTKVEIK
modifications: MC-vc-PAB-MMAE conjugate
In the case of B1, the “binding to human Axl” value in series [1] (conditions mimicking the TME (pH 6.0-7.0)) is “high affinity and specificity”; in series [1] (conditions mimicking the normal tissue environment (pH 7.3-7.4)), “reduced binding”. In series [2], the “binding to rat Axl” value was “not mouse or rat Axl; also recorded: lacked binding to the rodent enzyme”. Besides, the cytotoxicity entry in series [3] (normal conditions) is on record as “reduced cytotoxicity”. For the same molecule, the cellular toxicity entry in series [3] (tumor conditions) is on record as “induce cellular toxicity”. For the same molecule, in series [4] (1 mg/kg/dose, Day 22), the “area under the concentration versus time curve (AUC)0-inf” value amounted to 376 µg·h/mL. Also, the “group mean maximum plasma exposure (C0)” value in series [4] (1 mg/kg/dose, Day 22) was 20.0 µg/mL. The molecule also showed an AUC0-inf in series [4] (5 mg/kg/dose (HNSTD)) of 2370 µg·h/mL. The same molecule came in with a C0 in series [4] (5 mg/kg/dose (HNSTD), Day 22) of 111 µg/mL.
